From patent US20180185504A1 (Regeneron, published 2018)

Experiments:
[1] = biological target: T1, hPRLR-mmH (recombinant extracellular domain of hPRLR with a C-terminal myc-myc-hexahistidine tag) (human); experiment: H/D exchange MS; hPRLR-mmH bound to H1H6958N2 on NHS agarose beads
T1 construct: the entry includes the myc-myc-His6 tag; also called truncated form of PRLR
T1 chain: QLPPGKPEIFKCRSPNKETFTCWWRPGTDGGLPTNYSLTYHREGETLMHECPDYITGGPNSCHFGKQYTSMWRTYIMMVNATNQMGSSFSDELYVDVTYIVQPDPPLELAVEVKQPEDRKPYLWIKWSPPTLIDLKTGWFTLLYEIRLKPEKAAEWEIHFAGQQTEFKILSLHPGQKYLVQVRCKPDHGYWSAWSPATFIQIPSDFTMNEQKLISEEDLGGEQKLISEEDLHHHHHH

[2] = biological target: T2, dimeric form of human PRLR (Example 12 ELISA) (human); experiment: blocking ELISA: 10 nM dimeric human PRLR premixed with mAb (520 pM to 30 nM), plate-coated human PRL
T2 construct: PRLR'
T2 sequence (P16471 whole entry, looked up): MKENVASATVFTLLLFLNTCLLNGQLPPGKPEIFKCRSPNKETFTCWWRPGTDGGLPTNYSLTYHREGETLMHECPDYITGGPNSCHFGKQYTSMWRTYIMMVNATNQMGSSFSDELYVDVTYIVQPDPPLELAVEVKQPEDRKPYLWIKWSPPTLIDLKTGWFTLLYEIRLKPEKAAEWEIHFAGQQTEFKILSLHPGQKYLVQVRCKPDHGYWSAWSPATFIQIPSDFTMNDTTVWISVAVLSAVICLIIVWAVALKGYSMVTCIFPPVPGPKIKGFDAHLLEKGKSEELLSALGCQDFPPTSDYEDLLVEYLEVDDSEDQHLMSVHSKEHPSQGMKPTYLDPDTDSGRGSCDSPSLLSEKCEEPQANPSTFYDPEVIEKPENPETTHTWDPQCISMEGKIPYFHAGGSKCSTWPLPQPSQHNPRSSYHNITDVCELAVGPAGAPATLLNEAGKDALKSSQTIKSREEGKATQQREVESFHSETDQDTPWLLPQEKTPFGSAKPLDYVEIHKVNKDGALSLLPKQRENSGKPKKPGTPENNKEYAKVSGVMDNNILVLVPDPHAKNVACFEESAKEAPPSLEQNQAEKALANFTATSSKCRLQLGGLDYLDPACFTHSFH
Protocol: (§1) Dimeric forms of human or cynomolgus monkey (Macaca fascicularis) PRLR and monomeric human PRL were used in this assay. […] After 1-hour incubation, captured PRLR was detected with HRP-conjugated goat anti-Fcγ antibody and visualized with TMB colorimetric substrate by measuring absorbance at 450 nm. […] Mixtures were then added to plates coated with in 1 μg/mL PRL and captured PRLR was detected as described above. Data were analyzed using a four-parameter logistic equation over an 11-point response curve in GraphPad Prism software and IC₅₀ values were calculated.

[3] = biological target: T3, mouse PRLR with an HA tag on HEK293 cells (mouse, UniProt Q08501 20-608); experiment: FACS on HEK293/mPRLR cells
T3 construct: whole, on cells; also called HEK293/mPRLR; rodent PRLR; not shown: HA tag
T3 sequence (looked up): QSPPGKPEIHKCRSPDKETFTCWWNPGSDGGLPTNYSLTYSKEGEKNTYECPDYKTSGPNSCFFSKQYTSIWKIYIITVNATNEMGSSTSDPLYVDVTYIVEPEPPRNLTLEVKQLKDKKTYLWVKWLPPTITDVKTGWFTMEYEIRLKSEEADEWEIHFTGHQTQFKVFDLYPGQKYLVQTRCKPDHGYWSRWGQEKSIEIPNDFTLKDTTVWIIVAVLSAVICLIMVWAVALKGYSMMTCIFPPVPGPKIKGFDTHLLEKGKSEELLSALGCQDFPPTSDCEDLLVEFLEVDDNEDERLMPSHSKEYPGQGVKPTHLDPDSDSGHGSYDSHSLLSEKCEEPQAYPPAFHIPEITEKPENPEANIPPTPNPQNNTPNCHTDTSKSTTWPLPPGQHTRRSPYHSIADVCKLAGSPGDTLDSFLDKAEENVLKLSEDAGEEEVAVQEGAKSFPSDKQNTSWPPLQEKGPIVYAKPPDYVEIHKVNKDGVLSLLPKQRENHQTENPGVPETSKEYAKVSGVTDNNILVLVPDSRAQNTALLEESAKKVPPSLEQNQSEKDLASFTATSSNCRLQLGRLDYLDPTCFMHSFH

[4] = biological target: T4, dimeric form of cynomolgus monkey (Macaca fascicularis) PRLR (Example 12 ELISA) (cynomolgus monkey (Macaca fascicularis)); experiment: blocking ELISA: 10 nM dimeric monkey PRLR premixed with mAb (520 pM to 30 nM), plate-coated human PRL
T4 construct: also called monkey PRLR
Protocol: as §1

[5] = biological target: T5, human prolactin receptor (PRLR) on cells (human, UniProt P16471 25-622); experiment: cell-based or functional assay
T5 sequence: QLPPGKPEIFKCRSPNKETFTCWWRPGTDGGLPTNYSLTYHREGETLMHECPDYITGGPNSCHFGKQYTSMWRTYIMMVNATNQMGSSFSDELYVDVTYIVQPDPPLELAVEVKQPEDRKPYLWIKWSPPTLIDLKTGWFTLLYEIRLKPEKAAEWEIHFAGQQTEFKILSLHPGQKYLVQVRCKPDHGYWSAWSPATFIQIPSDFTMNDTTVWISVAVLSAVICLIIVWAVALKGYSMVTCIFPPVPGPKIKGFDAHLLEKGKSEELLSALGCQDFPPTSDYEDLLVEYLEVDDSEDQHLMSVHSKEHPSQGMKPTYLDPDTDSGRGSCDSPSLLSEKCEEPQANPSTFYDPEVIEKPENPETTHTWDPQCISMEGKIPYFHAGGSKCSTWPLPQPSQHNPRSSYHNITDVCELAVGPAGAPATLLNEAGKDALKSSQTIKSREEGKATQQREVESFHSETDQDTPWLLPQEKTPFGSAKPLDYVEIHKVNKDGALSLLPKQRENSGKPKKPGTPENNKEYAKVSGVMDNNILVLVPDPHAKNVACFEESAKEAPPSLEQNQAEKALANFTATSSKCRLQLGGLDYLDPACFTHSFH

IL-6R = biological target: T6, IL-6R (human, UniProt P08887 20-468); experiment: flow cytometry, anti-IL-6R antibody on KG-1 cells (endogenous IL-6R), PE anti-human secondary
T6 construct: whole, on cells
T6 sequence (looked up): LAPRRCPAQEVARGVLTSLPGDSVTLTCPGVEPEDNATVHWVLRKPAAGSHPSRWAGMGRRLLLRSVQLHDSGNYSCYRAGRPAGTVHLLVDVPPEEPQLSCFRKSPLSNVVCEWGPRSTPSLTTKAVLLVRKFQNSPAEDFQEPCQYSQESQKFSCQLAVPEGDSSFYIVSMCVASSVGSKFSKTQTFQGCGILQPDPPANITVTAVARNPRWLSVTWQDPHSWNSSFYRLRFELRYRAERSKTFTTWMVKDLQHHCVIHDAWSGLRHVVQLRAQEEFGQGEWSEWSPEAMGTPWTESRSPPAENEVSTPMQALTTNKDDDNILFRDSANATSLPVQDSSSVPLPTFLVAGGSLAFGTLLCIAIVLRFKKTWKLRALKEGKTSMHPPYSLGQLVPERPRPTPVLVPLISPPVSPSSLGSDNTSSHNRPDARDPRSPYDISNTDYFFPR

[6] = biological target: T7, hPRLR-mmH (recombinant extracellular domain of hPRLR with a C-terminal myc-myc-hexahistidine tag) (human); experiment: H/D exchange; hPRLR-mmH captured on H1H6958N2 agarose beads
T7 construct: also called truncated form of PRLR
T7 chain: T1 chain

B1: H1H6958N2 (antibody, human IgG1, V domains shown)
VH: QVQLVESGGGVVQPGRSLRLSCGASGFTFRNYGMQWVRQGPGKGLEWVTLISFDGNDKYYADSVKGRFTISRDNSKNTLFLQMNSLRTEDTAVYYCARGGDFDYWGQGTLVTVSS
VL: DIQMTQSPSSLSASVGDRVTITCRASQDIRKDLGWYQQKPGKAPKRLIYAASSLHSGVPSRFSGSGSGTEFTLTISSLQPEDFATYYCLQHNSYPMYTFGQGTKLEIK
notes: Tested with human IgG1 Fc (H1H); also called HIH6958N2
binding result [1]: binds
IC50 [2]: 5 nM
binding result [3]: no binding
IC50 [4]: 5.8 nM
IC50, block of PRL-induced STAT5-luciferase activity (2 nM PRL) [5]: 0.4 nM

B2: VV6A9-5 (antibody, V domains shown)
VH: EVQLVESGGGLVQPGRSLRLSCAASGFTFDDYALHWVRQAPGKGLEWVSGVSWNGGRIGYADSVKGRFTISRDNAKNSLFLQMNSLRVEDTALYYCAKGRDAFDIWGQGTLVTVSS
VL: DIQMTQSPSSVSASVGDRVTITCRASQGISSWLAWYQQKPGKAPKLLIYAASSLQSGVPSRFSGSGSGTDFTLTISSLQPEDFATYYCQHAYSFPYTFGQGTKLEIK
Fold Over Background (FACS MFI above isotype control) (IL-6R): 7 fold over background

B3: H1H6958N2 (antibody, V domains shown)
VH: B1 VH
VL: B1 VL
notes: In the H/D exchange experiment the antibody was covalently attached to NHS agarose beads; also called H2M6958N2 (same variable domains, mouse IgG2 Fc); anti-PRLR antibody H1H6958N2
binding result [6]: binds
